For series [1], the target named is Regulator of Photosynthesis and Photopigment-related gene expression A (RppA), full-length, MBP-tagged (Synechocystis sp. PCC 6803) (UniProt Q55933). The series can be described thus: SEC; RppA oxidised with 2 mM diamide, desalted; 0.85 mg on Superdex S200 10/300GL Increase; 100 mM HEPES pH 8.0, 100 mM NaCl; approximate masses from a calibration curve.
For series [2] the target is unchanged. The series is described as follows: non-reducing urea-SDS/PAGE; 2.5 µM RppA with 2 mM diamide, 30 min, room temperature; non-reducing SDS-6 M urea-8% PAGE.
Series [3] addresses Regulator of Phycobilisome Association B (RpaB), full-length, MBP-tagged (Synechocystis sp. PCC 6803). The series can be described thus: SEC; RpaB oxidised with 2 mM H2O2, desalted; 0.85 mg on Superdex S200 10/300GL Increase; 5% glycerol, 300 mM NaCl, 100 mM HEPES pH 8.0; approximate masses from a calibration curve.
For series [4] the target is unchanged. The series can be described thus: non-reducing urea-SDS/PAGE; 2.5 µM Rre1, RpaA or RpaB, air-exposed untreated or with 2 mM diamide or 2 mM H2O2, 30 min, room temperature; non-reducing SDS-6 M urea-8% PAGE; shows disulfide-linked oligomers.
Series [5] deals with the molecule itself. The series can be described thus: SEC; Rre1 or RpaA oxidised with 2 mM H2O2, desalted; 0.85 mg on Superdex S200 10/300GL Increase; 100 mM HEPES pH 8.0, 100 mM NaCl; approximate masses from a calibration curve.

These results are taken from PMC9321951, “Thiol redox switches regulate the oligomeric state of cyanobacterial Rre1, RpaA and RpaB response regulators” (Febs Letters, 2022).

Several values for one entry are separate records, joined by “and”; a condition that tells them apart may be missing. Equal values may be shown once.

Turning to “Regulator of Photosynthesis and Photopigment-related gene expression A (RppA), full-length, MBP-tagged (from UniProt Q55933 1-234) (natural protein)”, the stoichiometry N in series [1] and in series [2] was 3 throughout.
In the case of “Regulator of Phycobilisome Association B (RpaB), full-length, MBP-tagged (natural protein)”, the stoichiometry N in series [3] was 4 and 3; in series [4] it was 2.

B1: Response Regulator 1 (Rre1), full-length, MBP-tagged (natural protein, Synechocystis sp. PCC 6803, UniProt P72781 1-231, looked up)
chain: MAEPISLLLVDDEPGVRESVQAFLEDSGDFKVDLAANATEAWDYLQHHLPALVISDIMMPQVDGYQFLQKLREDARFQSLPVVFLTARGMTGDRIQGYQTGCDAFLSKPFDPDELEAIVRNLLARQQASSDAGSESAKLQEIYQEIRALKEQIGQPSGIHTTPSPIKLDFTPREQSVLDLVSQGLMNKEIAAQLKTSVRNVEKYVSRLFTKTGTNSRTELVRFALQHGLTE
notes: Rre1 (response regulator 1), Synechocystis sp; Cloned KpnI/XhoI into pETG-41A; theoretical mass of the MBP-tagged monomer printed as 75 kDa
B1: the “stoichiometry N” value in series [5] is 3 and 4.
